Data reported in patent publication US20230383269A1 (DSM AUSTRIA, published 2023).

Target: the molecule itself
Assay: Blue-Native-PAGE, oligomeric conformation (self-association of identical chains)
From the text: Comparison of the native molecular weight (oligomeric conformation) between single purified zearalenone-cleaving polypeptides was done via Blue-Native-PAGE. Dilutions of the elutes were supplied with not denaturating loading dye (e.g. 2× loading dye: 0.126 M tris(hydroxymethyl)aminomethan/hydrochloric acid pH 6.8, 20.0% glycerol, 4.0% Coomassie Blue G-250) and separated on a 4-15% polyacrylamid gel under native conditions (e.g. Mini-PROTEAN® Tetra Cell System, 1658004EDU+4-15% Mini-PROTEAN® TGX™ Precast Protein Gels, 4561083EDU, Bio-Rad Laboratories GmbH) (5× Anode Buffer: 0.125 M Tris(hydroxymethyl)aminomethane, 0.960 M Glycine, 1× Kathode Buffer: Anode Buffer+0.02% Coomassie Blue G250; 200 V, 40 minutes). The peptide bands were visualized by Coomassie staining. The oligomeric state of selected zearalenone-cleaving polypeptides was determined by size exclusion chromatography, SEC-MALS or X-Ray crystallography. Homo-dimers (e.g. SEQ ID NO. 1) migrated faster across the BN-PAGE gel matrix, while homo-tetramers (e.g. SEQ ID NO. 2-35) were retained in the gel matrix to a higher extent. The oligomeric conformation of the zearalenone-cleaving polypeptides was determined relatively to the migration of homo-dimeric and homo-tetrameric peptides.

B1: parent alpha/beta hydrolase of SEQ ID NO: 1 (enzyme)
chain: MTDQSPETRDIFVPHAFEEQQVDLGEVVMNYVEAGSADHPALLLLPEQTGSWWSYEPVIGLLAESFHVFAVDIRGQGRSTWTPKRYSLDNFGNDLVRFISLVVKRPVIVSGNSSGGVLAAWLSAYAMPGQIRAALCEDTPFFASELVPAHGHSVRQAAGPAFELYRNFLGDQWSVADWDGFAAAAKASPSKIMSLFPSSDEPPQNLKEYDPEWARAFFEGTVALHCPHDLMLSQVKTPILITHHARAVDPHSGDLLGALSDFQAERAQAIIESAGVPVEYASFPDALHMMHQFEPERFAEVLTSWVARLPADTPGAHHHHHH
notes: homo-dimer; also called wildtype parent alpha/beta hydrolase; zearalenone-cleaving polypeptide
B1: binds.
